Molecular target: recombinant mouse TfR extracellular domain protein (UniProt Q62351)
Test: ELISA
Details: ligand concentration 20 nM (est. from x axis); mTfR coated on plate; signal normalized to each construct's own maximum; parent: est. 78; read off a plot

Chain of UniProt Q62351 (Q62351 89-763): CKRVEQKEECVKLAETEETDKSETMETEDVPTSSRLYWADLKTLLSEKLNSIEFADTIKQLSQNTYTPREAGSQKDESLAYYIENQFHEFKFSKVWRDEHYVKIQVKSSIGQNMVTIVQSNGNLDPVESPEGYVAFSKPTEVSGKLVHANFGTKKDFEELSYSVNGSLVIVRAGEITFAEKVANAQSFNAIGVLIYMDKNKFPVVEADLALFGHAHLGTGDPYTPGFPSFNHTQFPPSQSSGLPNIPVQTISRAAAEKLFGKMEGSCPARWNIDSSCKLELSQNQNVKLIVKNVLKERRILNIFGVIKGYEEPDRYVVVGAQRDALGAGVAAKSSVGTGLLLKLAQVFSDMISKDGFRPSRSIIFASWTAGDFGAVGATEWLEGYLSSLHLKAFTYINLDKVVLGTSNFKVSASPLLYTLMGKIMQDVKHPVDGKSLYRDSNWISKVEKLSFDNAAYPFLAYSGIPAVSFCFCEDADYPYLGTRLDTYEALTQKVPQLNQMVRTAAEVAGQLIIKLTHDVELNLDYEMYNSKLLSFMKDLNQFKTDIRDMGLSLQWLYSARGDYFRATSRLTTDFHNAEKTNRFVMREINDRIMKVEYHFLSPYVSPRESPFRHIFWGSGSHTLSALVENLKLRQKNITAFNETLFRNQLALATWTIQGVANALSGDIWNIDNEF

response (% of own maximum OD450)	Substance
26	scFc-scFv8D3 T100V
39	scFc-scFv8D3 S101A
17	scFc-scFv8D3 H102A
24	scFc-scFv8D3 Y103F
